Assays:
[1] = molecular target: T1, full length human c-Met on cells (human, UniProt P08581 25-1390); assay: flow cytometry, Fab titration on GTL-16 cells
T1 construct: whole, on cells; NCI-H441 for migration; A549 for autophosphorylation; also called human c-Met GTL-16; c-Met on NCI-H441 cells
Description: (§1) In order to further characterize the anti-c-Met antibodies, the affinity to full length human and cynomolgus c-Met is determined. GTL16, CHO cells overexpressing cynomolgus c-Met or rhesus 4 MBr-5 cells are washed, trypsinised, and suspended in PBS containing 3% FCS (3% FCS/PBS) at 4-C. 2-5×10⁵ cells/sample are resuspended in 140 μl of 3% FCS//PBS containing 5 μg/ml of purified anti-cMet Fabs or serial dilutions thereof. As a positive control 5 μg/ml of DO24 (mouse IgG2a), anti-human c-Met is used. The cells are incubated for 30-60 minutes at 4° C. before being pelleted by centrifugation for 2 min at 2000 rpm (716 g) at 4° C. and washed in 200 μl of in chilled 3% FCS/PBS. The cells are again pelleted by centrifugation and the PBS gently removed. Cells are resuspended in 100 μl of goat anti-human IgG (H+L) PE conjugated (Jackson Cat No. 109-116-088) diluted 1:200 in 3% FCS/0.02% NaN₃/PBS; For the positive control goat anti-mouse IgG (H+L)-PE conjugated (Jackson Cat No. 115-116-146) diluted 1:200 in 3% FCS/PBS is used. Samples are incubated in the dark for 30-60 min at 4° C. Following centrifugation and washing in 200 μl of 3% FCS/0.02%/NaN₃/PBS the cells are resuspended in 100 μl of 3% FCS/PBS and assayed using FACS-array or FACS-Calibur.

[2] = molecular target: T2, rhesus c-Met on 4MBr-5 cells (rhesus); assay: flow cytometry, Fab titration on rhesus 4MBr-5 cells
T2 construct: whole, on cells
Description: as §1

[3] = molecular target: T3, recombinant human c-Met (human, UniProt P08581 25-932, limits assumed); assay: SPR (BIAcore), c-Met amine-coupled on CM5 chip, Fab 16-500 nM as analyte
T3 construct: Soluble recombinant protein: immobilised on the CM5 chip in Biacore, in solution in the equilibrium titration; The precursor is cleaved into disulfide-linked alpha and beta subunits; also called Hepatocyte Growth Factor Receptor
T3 sequence (P08581 25-932 limits assumed): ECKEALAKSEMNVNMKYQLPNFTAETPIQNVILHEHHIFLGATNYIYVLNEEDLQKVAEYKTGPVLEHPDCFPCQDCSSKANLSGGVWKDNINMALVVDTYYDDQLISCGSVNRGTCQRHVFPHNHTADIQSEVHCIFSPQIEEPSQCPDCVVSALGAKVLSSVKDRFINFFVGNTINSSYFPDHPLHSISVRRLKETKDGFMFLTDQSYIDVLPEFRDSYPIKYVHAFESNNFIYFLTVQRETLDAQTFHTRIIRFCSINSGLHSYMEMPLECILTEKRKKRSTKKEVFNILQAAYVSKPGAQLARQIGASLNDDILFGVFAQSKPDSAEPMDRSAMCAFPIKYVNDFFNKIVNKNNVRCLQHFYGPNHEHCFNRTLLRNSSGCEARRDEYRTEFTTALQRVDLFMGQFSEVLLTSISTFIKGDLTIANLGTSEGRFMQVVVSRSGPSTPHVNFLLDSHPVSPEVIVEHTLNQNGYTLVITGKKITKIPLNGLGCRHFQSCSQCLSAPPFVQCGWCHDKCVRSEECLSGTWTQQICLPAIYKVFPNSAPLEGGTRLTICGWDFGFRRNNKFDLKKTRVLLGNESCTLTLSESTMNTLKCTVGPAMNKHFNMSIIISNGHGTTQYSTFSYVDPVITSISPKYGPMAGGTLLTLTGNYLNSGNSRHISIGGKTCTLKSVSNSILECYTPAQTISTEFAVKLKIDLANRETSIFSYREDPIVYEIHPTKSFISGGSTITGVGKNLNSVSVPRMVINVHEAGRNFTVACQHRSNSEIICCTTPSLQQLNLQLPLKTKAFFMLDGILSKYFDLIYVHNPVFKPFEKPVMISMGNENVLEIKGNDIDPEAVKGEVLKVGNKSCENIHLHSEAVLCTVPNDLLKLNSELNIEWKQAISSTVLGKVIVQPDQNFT
Description: (§2) Using these clones, kinetic SPR analysis is performed on a CM5 chip (Biacore, Sweden) which had been coated with a density of ˜400 RU of either recombinant human c-Met, in 10 mM Na-acetate pH 4.5 using standard EDC-NHS amine coupling chemistry. […] PBS (136 mM NaCl, 2.7 mM KCl, 10 mM Na2HPO4 , 1.76 mM KH2PO4 pH 7.4) is used as the running buffer. The Fab preparations are applied in concentration series of 16-500 nM at a flow rate of 20 μl/min. Association phase is set to 60 s and dissociation phase to 120 s.

[4] = molecular target: T4, cynomolgus c-Met on CHO cells (cynomolgus, UniProt A0A2K5UM36 25-1381, The natural precursor is cleaved into disulfide-linked alpha and beta subunits. It is given here as one mature chain, following the entry's CHAIN feature.); assay: flow cytometry, Fab titration on CHO cells overexpressing cynomolgus c-Met
T4 construct: also called cyno c-Met; CHO-cMet cyno
T4 sequence (A0A2K5UM36 entry or part of it limits assumed): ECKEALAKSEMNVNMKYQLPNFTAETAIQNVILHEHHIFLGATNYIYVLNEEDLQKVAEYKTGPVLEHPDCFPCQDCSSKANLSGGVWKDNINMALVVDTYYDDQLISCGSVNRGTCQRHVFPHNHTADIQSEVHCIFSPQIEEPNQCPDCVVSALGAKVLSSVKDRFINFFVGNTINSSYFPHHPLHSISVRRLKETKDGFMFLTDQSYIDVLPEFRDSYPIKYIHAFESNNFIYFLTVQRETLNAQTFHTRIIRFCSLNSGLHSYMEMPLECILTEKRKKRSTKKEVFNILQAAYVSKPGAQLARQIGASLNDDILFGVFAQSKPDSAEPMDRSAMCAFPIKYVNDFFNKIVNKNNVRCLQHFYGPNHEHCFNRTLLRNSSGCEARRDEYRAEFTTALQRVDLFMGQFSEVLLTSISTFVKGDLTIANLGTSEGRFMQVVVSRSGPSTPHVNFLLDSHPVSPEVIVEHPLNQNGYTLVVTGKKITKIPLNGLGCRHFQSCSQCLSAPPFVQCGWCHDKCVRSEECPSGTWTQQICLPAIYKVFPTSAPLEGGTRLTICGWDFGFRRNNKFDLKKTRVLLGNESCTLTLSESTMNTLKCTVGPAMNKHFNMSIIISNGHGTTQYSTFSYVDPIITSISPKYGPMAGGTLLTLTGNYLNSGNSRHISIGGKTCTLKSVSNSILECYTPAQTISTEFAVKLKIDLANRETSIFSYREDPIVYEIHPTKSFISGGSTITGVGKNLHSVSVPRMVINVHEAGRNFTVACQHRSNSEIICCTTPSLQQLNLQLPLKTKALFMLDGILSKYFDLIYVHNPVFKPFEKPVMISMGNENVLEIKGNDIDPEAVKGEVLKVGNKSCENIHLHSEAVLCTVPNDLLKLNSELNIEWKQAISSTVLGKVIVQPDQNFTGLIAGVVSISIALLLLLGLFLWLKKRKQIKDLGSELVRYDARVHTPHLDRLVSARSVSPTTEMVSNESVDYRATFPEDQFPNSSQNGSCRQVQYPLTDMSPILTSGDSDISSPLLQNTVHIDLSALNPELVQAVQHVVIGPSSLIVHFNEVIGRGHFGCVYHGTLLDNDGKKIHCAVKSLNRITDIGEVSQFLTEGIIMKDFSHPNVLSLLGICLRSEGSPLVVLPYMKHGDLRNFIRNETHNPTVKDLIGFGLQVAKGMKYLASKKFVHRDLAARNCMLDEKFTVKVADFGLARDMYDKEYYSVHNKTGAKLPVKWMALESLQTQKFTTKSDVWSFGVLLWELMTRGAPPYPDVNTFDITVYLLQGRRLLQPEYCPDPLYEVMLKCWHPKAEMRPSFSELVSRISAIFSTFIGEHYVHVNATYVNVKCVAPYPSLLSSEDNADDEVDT
Description: as §1

[5] = molecular target: T1, full length human c-Met on cells; assay: flow cytometry, Fab on GTL-16 cells
Description: as §1

[6] = molecular target: T4, cynomolgus c-Met on CHO cells; assay: flow cytometry, Fab on CHO-cyno c-Met cells
Description: as §1

[7] = molecular target: T3, recombinant human c-Met; assay: SPR (BIAcore), Fab on immobilised human c-Met
Description: as §2

[8] = molecular target: T4, cynomolgus c-Met on CHO cells; assay: flow cytometry, Fab on CHO-cyno c-Met cells; remark: listed apart in the source
Description: as §1
(§3) Using the assay conditions described above, the affinities for the affinity-optimized anti-c-Met Fabs are determined in solution. Affinities are determined for antibodies with KDs below 4.6 pM to human c-Met. FACs based analysis of binding to cyno-c-Met expressed on CHO cells, as described above, is carried out.

[9] = molecular target: T3, recombinant human c-Met; assay: solution equilibrium titration (SET), ECL detection (BioVeris), Fab with human c-Met in solution
Description: Electrochemiluminescence (ECL) based affinity determination in solution and data evaluation are basically performed as described by Haenel et al., 2005. A constant amount of Fab is equilibrated with different concentrations (serial 3ⁿ dilutions) of human c-Met (4 nM starting concentration) in solution. Biotinylated human c-Met coupled to paramagnetic beads (M-280 Streptavidin, Dynal), and BV-Tag™ (BioVeris Europe, Witney, Oxfordshire, UK) labelled anti-human (Fab)′₂ (Dianova) is added and the mixture incubated for 30 min. Subsequently, the concentration of unbound Fab is quantified by ECL detection using the M-SERIES® 384 analyzer (BioVeris Europe).
as §3

T1 sequence (P08581 25-1390): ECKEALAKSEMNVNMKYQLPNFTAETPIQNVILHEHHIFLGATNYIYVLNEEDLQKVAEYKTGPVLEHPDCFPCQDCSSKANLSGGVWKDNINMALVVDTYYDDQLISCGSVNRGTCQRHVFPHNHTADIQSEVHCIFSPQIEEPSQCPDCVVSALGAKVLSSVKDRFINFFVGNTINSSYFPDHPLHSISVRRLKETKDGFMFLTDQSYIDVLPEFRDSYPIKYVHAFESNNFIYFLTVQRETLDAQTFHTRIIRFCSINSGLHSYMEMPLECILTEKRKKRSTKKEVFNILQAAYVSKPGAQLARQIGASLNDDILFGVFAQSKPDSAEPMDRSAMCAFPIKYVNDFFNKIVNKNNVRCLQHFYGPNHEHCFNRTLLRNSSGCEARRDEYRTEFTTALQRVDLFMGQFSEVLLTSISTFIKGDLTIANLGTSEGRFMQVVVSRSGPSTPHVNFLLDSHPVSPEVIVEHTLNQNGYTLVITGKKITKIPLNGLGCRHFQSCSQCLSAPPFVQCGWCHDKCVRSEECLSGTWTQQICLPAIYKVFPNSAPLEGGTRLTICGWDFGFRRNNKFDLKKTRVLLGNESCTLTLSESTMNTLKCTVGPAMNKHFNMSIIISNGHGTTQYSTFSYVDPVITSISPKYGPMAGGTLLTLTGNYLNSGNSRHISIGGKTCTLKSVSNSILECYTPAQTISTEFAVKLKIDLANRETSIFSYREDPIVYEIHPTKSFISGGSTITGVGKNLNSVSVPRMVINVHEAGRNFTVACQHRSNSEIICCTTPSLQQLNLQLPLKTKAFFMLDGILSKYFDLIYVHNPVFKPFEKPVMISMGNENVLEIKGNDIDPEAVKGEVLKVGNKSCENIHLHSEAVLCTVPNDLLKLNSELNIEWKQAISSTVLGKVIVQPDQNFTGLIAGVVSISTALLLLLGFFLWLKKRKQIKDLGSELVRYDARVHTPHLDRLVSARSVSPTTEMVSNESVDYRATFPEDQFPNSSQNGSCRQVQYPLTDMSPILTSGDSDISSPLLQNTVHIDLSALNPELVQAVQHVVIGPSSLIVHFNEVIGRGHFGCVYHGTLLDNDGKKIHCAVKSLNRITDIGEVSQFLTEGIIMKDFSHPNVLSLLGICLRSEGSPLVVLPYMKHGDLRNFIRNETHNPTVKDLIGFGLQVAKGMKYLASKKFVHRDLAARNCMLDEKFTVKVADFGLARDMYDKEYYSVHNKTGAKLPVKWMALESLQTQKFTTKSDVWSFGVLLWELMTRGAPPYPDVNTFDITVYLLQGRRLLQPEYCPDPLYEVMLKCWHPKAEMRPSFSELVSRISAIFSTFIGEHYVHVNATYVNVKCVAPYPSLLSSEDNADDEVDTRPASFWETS

Kd [1] [nM]	Kd [2] [nM]	Kd [3] [nM]	Kd [4] [nM]	Kd [5] [nM]	Kd [6] [nM]	Kd [7] [nM]	Kd [8] [nM]	Kd [9] [nM]	Binder
1.2	0.3	11.2	0.3	–	–	–	–	–	04682 (parental anti-cMet Fab antibody) (Fab, V domains shown, carries two C-terminal tags (FLAG and 6xHis)) VH: QVQLVQSGAEVKKPGESLKISCKGSGYSFTNYGIAWVRQMPGKGLEWMGIIYPSDSYTNYSPSFQGQVTISADKSISTAYLQWSSLKASDTAMYYCARMSYDYQHQAPSMDSWGQGTLVTVSS VL: DIVLTQPPSVSGAPGQRVTISCSGSSSNIGSNYVIWYQQLPGTAPKLLIYDDTNRPSGVPDRFSGSKSGTSASLAITGLQSEDEADYYCSTYDNYQAGWVFGGGTKLTVLG
0.4	0.1	1.4	0.5	1.7	229	1.4	–	–	04536 (parental anti-cMet Fab antibody) (Fab, V domains shown, carries two C-terminal tags (FLAG and 6xHis)) VH: QVQLVQSGAEVKKPGASVKVSCKASGYTFTGYYMNWVRQAPGQGLEWMGIINPWTGNTNYAQKFQGRVTMTRDTSISTAYMELSSLRSEDTAVYYCARDPGFFYYTPSDLWGQGTLVTVSS VL: DIELTQPPSVSVAPGQTARISCSGDSIGNKYVHWYQQKPGQAPVLVIYADSDRPSGIPERFSGSNSGNTATLTISGTQAEDEADYYCQAYDSSMLRVFGGGTKLTVLG
5.7	1.2	0.8	1.1	4	1.3	0.8	–	–	04687 (parental anti-cMet Fab antibody) (Fab, V domains shown, carries two C-terminal tags (FLAG and 6xHis)) VH: QVQLVQSGAEVKKPGSSVKVSCKASGGTFSSYAISWVRQAPGQGLEWMGGIDPFGTANYAQKFQGRVTITADESTSTAYMELSSLRSEDTAVYYCARVYQDVWGQGTLVTVSS VL: DIVMTQSPDSLAVSLGERATINCRSSQSILYGINNNFLGWYQQKPGQPPKLLIYWASTRESGVPDRFSGSGSGTDFTLTISSLQAEDVAVYYCQQYYNHPHTFGQGTKVEIKR
–	–	–	–	–	–	–	0.00068	0.0036	05097 (affinity-improved anti-cMet Fab antibody) (Fab, V domains shown) VH: QVQLVQSGAEVKKPGSSVKVSCKASGGTFSSYAISWVRQAPGQGLEWMGGIDPFGTANYAQKFQGRVTITADESTSTAYMELSSLRSEDTAVYYCARVYQDVWGQGTLVTVSS VL: DIVMTQSPDSLAVSLGERATINCRSSQSILYGINNNFLGWYQQKPGQPPKLLIYWASTRESGVPDRFSGSGSGTDFTLTISSLQAEDVAVYYCQQYAFGWTFGQGTKVEIKR
–	–	–	–	–	–	–	0.00029	0.0046	05185 (affinity-improved anti-cMet Fab antibody) (Fab, V domains shown) VH: QVQLVQSGAEVKKPGSSVKVSCKASGGTFSSYAISWVRQAPGQGLEWMGGIDPIMGTEYAQKFQGRVTITADESTSTAYMELSSLRSEDTAVYYCARVYQDVWGQGTLVTVSS VL: DIVMTQSPDSLAVSLGERATINCRSSQSILYGINNNFLGWYQQKPGQPPKLLIYWASTRESGVPDRFSGSGSGTDFTLTISSLQAEDVAVYYCQQYAYEPNTFGQGTKVEIKR
–	–	–	–	–	–	–	0.0003	0.0021	05098 (affinity-improved anti-cMet Fab antibody) (Fab, V domains shown) VH: QVQLVQSGAEVKKPGSSVKVSCKASGGTFSSYAISWVRQAPGQGLEWMGGIDPFGTANYAQKFQGRVTITADESTSTAYMELSSLRSEDTAVYYCARVYQDVWGQGTLVTVSS VL: DIVMTQSPDSLAVSLGERATINCRSSQSILYGINNNFLGWYQQKPGQPPKLLIYWASTRESGVPDRFSGSGSGTDFTLTISSLQAEDVAVYYCLQYSDEPWTFGQGTKVEIKR

Source: US20090175860A1 (Novartis, published 2009)
